Measured values reported in US20220153873A1 (ICAHN SCHOOL OF MEDICINE AT MOUNT SINAI, published 2022).
“And” between values parts separate entries of the source, which are not always exact repeats. Identical values can stand only once.

Tests used:
[1] = target: recombinant neuraminidase (rNA) of B/Malaysia/2506/04 (influenza B virus B/Malaysia/2506/04)
[2] = target: recombinant neuraminidase (rNA) of B/Wisconsin/1/10 (influenza B virus B/Wisconsin/1/10)

B1: HC0LC0 (antibody, V domains shown)
VH: QVHLQQSGPEVARPGASVKLSCKASGYTFTDYYLNWVKQRPRQGLEWIGQIHPGSTNTYYNEKFKGKATLTADKSSSTAYMQLSSLTSEDSAVYFCARSLGDGYYVYAMDYWGQGTAVTVSS
VL: DIVMTQSQKFMSTSVGDRVSVTCKASQNVVTNVVWYQQKPGQSPKPLIYSASYRYSGVPDRFTGSGSGTDFTLTISNVQSEDLAEYCCQQYHSYPFTFGSGTKLEVKR
- % Dissociation [1]: 0.52% and 0%
- Early Stability X=902 [2]: 0.32 nm and 0.3 nm and 0.33 nm
